According to patent publication US20090130120A1 (published 2009):

Assays:
[1] = target: F protein on live RSV virus (strain not stated) (respiratory syncytial virus (RSV)); experiment: cell-based or functional assay
[2] = target: T1, RSV G protein of group A strain (Ga protein) (respiratory syncytial virus (RSV), …, UniProt P03423 1-298); experiment: Biacore, antibody on chip, recombinant Ga in flow
T1 construct: also called RSV-Ga; RSV-GA2 protein
T1 sequence: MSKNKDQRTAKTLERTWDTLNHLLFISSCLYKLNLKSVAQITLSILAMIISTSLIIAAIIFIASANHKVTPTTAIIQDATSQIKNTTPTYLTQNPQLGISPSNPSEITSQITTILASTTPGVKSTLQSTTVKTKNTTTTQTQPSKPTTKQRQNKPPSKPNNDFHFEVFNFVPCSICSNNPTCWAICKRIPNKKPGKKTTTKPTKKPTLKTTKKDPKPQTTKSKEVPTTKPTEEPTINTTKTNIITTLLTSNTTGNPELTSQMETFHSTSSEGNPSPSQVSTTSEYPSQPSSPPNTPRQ

[3] = target: T2, 12-mer Ga derived peptide HFEVFNFVPCSI; experiment: array of overlapping 12-mer peptides, 1 ug/ml antibody, chemiluminescence
T2 construct: also called (169) HFEVFNFVPCSI (176)
T2 peptide: HFEVFNFVPCSI

What does the source list for Synagis® (palivizumab) (antibody)?
IC50, plaque assay for neutralization of RSV on HEp2 cells with rabbit complement [1]: 0.3 mg/L; affinity according to the plaque neutralization assay [1]: 2 nM

B1: 10C6 (antibody, V domains shown)
VH: QVQLVESGGGVVQPGRSLRLSCEASGFTFSGYAMHWVRQAPAKGLEWVAVISFDGSNNYYADSVKGRFTISRDNSKNMLFLQMNSLRAEDTAVYYCVRPDVIAVAGTALSNPFDLWGLGTMVTVSS
VL: EIVMTQSPATLSVSPGERALSCRASQSVRSNLVWYQQKPGQAPRLLIFGASTRATGIPARFSGSGSGTEFTLTISSLQSEDFALYFCQQNNNWPPTFGQGTRLEIK
Which Kd [2] does the source give for B1 here?
The Kd was 0.055 nM.

B2: murine monoclonal antibody 131-2G (antibody, V domains shown)
VH: EVQLQQSGPELVKPGTSVKISCKASGYSFTGFTMNWVKQSHGKNLEWFGLINPFNGNTGYNQKFKGKATLTVDKSSSTAFMELLSLTSEDSAVYYCARSGKSYDYEAWFTYWGQGTLVTVSA
VL: DIVMTQTTLSLPVSLGNQASISCRSSQTIVHTNGNTYLEWYLQKPGQSPKLLIYKVSNRFSGVPDRFSGSGSGTDFILNISRVEAEDLGVYYCFQGSHVPFTFGSGTKLEIKR
notes: Only variable regions are printed
Does B2 bind [3]?
Result: binds
